Measured values as given in IntAct's records for PubMed 29039417.

B1: Protein PTHB1 (Homo sapiens), Q3SYG4 (parent)
chain: MSLFKARDWWSTILGDKEEFDQGCLCLANVDNSGNGQDKIIVGSFMGYLRIFSPHPAKTGDGAQAEDLLLEVDLRDPVLQVEVGKFVSGTEMLHLAVLHSRKLCVYSVSGTLGNVEHGNQCQMKLMYEHNLQRTACNMTYGSFGGVKGRDLICIQSMDGMLMVFEQESYAFGRFLPGFLLPGPLAYSSRTDSFLTVSSCQQVESYKYQVLAFATDADKRQETEQQKLGSGKRLVVDWTLNIGEQALDICIVSFNQSASSVFVLGERNFFCLKDNGQIRFMKKLDWSPSCFLPYCSVSEGTINTLIGNHNNMLHIYQDVTLKWATQLPHIPVAVRVGCLHDLKGVIVTLSDDGHLQCSYLGTDPSLFQAPNVQSRELNYDELDVEMKELQKIIKDVNKSQGVWPMTEREDDLNVSVVVSPNFDSVSQATDVEVGTDLVPSVTVKVTLQNRVILQKAKLSVYVQPPLELTCDQFTFEFMTPDLTRTVSFSVYLKRSYTPSELEGNAVVSYSRPTDRNPDGIPRVIQCKFRLPLKLICLPGQPSKTASHKITIDTNKSPVSLLSLFPGFASQSDDDQVNVMGFHFLGGARITVLASKTSQRYRIQSEQFEDLWLITNELILRLQEYFEKQGVKDFACSFSGSIPLQEYFELIDHHFELRINGEKLEELLSERAVQFRAIQRRLLARFKDKTPAPLQHLDTLLDGTYKQVIALADAVEENQGNLFQSFTRLKSATHLVILLIALWQKLSADQVAILEAAFLPLQEDTQELGWEETVDAAISHLLKTCLSKSSKEQALNLNSQLNIPKDTSQLKKHITLLCDRLSKGGRLCLSTDAAAPQTMVMPGGCTTIPESDLEERSVEQDSTELFTNHRHLTAETPRPEVSPLQGVSE
partner: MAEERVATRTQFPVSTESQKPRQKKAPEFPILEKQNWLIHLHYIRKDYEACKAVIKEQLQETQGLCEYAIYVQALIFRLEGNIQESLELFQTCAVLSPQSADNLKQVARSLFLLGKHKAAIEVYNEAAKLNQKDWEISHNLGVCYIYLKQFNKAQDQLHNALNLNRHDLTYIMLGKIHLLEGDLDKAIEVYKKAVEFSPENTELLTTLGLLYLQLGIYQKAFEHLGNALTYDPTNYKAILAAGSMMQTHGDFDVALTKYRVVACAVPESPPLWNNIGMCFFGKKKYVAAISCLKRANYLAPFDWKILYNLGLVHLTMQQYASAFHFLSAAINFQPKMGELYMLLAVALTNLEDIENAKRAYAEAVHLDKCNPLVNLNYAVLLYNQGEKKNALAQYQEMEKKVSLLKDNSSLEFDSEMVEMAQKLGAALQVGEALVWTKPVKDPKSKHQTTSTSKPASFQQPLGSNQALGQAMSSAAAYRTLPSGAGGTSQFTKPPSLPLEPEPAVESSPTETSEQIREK

Variants of: B1
Conditions: with bbs4_human BBS4, Q96RK4

effect of a mutation on the interaction | Variant
with no effect | L780E
with no effect | L780A
with no effect | L780K
with no effect | A774K
with no effect | A774E
with no effect | V734E
with no effect | V734K
with no effect | A775E
with no effect | A775K
with no effect | A750E
with no effect | A750K
with no effect | A755E
with no effect | A755K
with no effect | Q742E
with no effect | Q742A
with no effect | Q742K
with no effect | G767A
with no effect | G767E
with no effect | G767K
with no effect | E753K
with no effect | E753A
disrupting interaction strength | I738K
disrupting interaction strength | I738A
disrupting interaction strength | I738E
with no effect | L744K
with no effect | L744A

effect of a mutation on the interaction | Variant
with no effect | L744E
with no effect | L737A
with no effect | L737K
with no effect | L737E
with no effect | K786A
with no effect | K786E
with no effect | P758E
with no effect | P758K
with no effect | P758A
with no effect | E765A
with no effect | E765K
with no effect | L752A
with no effect | L752K
with no effect | L752E
with no effect | K743E
with no effect | K743A
with no effect | L784K
with no effect | L784E
with no effect | L784A
with no effect | I776A
with no effect | I776K
with no effect | I776E
disrupting interaction strength | E770A
with no effect | E770K
with no effect | H778E
with no effect | H778K

effect of a mutation on the interaction | Variant
with no effect | H778A
with no effect | Q798E
with no effect | Q798A
disrupting interaction strength | S745E
with no effect | S745A
with no effect | S745K
with no effect | W768K
with no effect | W768E
with no effect | W768A
with no effect | D762K
with no effect | D762A
with no effect | D762E
with no effect | E790K
with no effect | E790A
with no effect | A754K
with no effect | A754E
with no effect | S787K
with no effect | S787A
with no effect | S787E
with no effect | L779A
with no effect | L779K
with no effect | L779E
with no effect | I751E
with no effect | I751A
with no effect | I751K
with no effect | E769A

effect of a mutation on the interaction | Variant
with no effect | E769K
disrupting interaction strength | A739K
with no effect | A739E
disrupting interaction strength | Q748A
disrupting interaction strength | Q748L
disrupting interaction strength | Q748K
with no effect | Q748E
with no effect | D747K
disrupting interaction strength | D747N
with no effect | D747E
disrupting interaction strength | D747A
with no effect | D773E
with no effect | D773A
with no effect | D773K
with no effect | E761A
with no effect | E761K
with no effect | I735K
with no effect | I735A
with no effect | I735E
with no effect | L766K
disrupting interaction strength | L766C
with no effect | L766A
with no effect | L766E
with no effect | T763E
with no effect | T763K
with no effect | T763A

effect of a mutation on the interaction | Variant
with no effect | L757K
with no effect | L757E
with no effect | L757A
with no effect | S788K
with no effect | S788A
with no effect | S788E
with no effect | L759A
with no effect | L759K
with no effect | L759E
with no effect | Q791A
with no effect | Q791E
with no effect | Q791K
disrupting interaction strength | Q791L
with no effect | C783E
with no effect | C783A
with no effect | C783K
with no effect | N794K
with no effect | N794E
with no effect | N794A
with no effect | N796E
with no effect | N796K
with no effect | N796A
with no effect | K781E
with no effect | K781A
with no effect | L793A
with no effect | L793E

effect of a mutation on the interaction | Variant
with no effect | L793K
with no effect | A746K
with no effect | A746E
with no effect | L736E
with no effect | L736A
with no effect | L736K
with no effect | Q764E
with no effect | Q764K
with no effect | Q764A
disrupting interaction strength | S785K
with no effect | S785E
with no effect | S785A
with no effect | Q760K
with no effect | Q760E
with no effect | Q760A
with no effect | W741E
with no effect | W741A
with no effect | W741K
with no effect | T782K
with no effect | T782A
with no effect | T782E
with no effect | F756E
with no effect | F756K
with no effect | F756A
with no effect | V749A
with no effect | V749E

effect of a mutation on the interaction | Variant
with no effect | V749K
with no effect | V772A
disrupting interaction strength | V772E
disrupting interaction strength | V772K
with no effect | T771K
with no effect | T771A
with no effect | T771E
with no effect | L795E
with no effect | L795K
with no effect | L795A
with no effect | S777K
with no effect | S777A
disrupting interaction strength | S777E
with no effect | S797E
with no effect | S797K
with no effect | S797A
with no effect | A792E
with no effect | A792K
with no effect | K789E
with no effect | K789A
with no effect | L740K
with no effect | L740E
with no effect | L740A
